Assay results from US20020028482A1, “NIP45 HUMAN HOMOLOG” (priority 1997, published 2002).

T1: hNFAT1 (Homo sapiens, UniProt Q13469)
T1 construct: contains the coding region for 400-692 amino acid residues of hNFAT 1; expressed in transfected cells; host or cells: yeast strain EGY48/p8op-lacZ
T1 sequence (Q13469 400-692): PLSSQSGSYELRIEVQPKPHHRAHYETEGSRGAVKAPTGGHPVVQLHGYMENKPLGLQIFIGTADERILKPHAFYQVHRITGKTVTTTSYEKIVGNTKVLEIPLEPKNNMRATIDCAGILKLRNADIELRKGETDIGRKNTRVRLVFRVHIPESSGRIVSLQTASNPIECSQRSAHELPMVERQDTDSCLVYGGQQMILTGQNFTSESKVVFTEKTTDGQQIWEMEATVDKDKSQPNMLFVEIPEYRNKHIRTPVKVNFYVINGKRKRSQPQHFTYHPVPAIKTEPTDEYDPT


What was measured:
[1] = molecular target: LacZ (Escherichia coli, UniProt P00722); details: LacZ substrate
Method: (1) CPRG is used rather than ONPG. […] In assays SmM (10×Km) is used which we take to be approximately saturating.
Grow yeast cultures overnight. Dilute back to OD 0.05 to 0.1 next day and allow to continue growing. When they have reached an OD of about 1, make a set of dilutions in culture medium. Add 120 ul of each dilution to the wells of a microtitre plate. Start the reaction by addition of 30 ul reaction buffer and measure the initial rate of reaction (kinetic read over 10 minutes).

[2] = molecular target: T1, hNFAT1; assay: yeast two hybrid assay, interaction with hNFAT1; format: binding; details: colonies, FIG. 11 and FIG. 12
Excerpt: A 879 bp DNA fragment, corresponding to positions 1418-2296 of hNFAT1 nucleic acid sequence (GenBank Accession number U43342), was PCR amplified via standard methods using Clontech human lymph node Marathon Ready cDNA as template. CLONTECH, Palo Alto, Calif. The resulting PCR product was cloned into the bait vector, plexA-BD (CLONTECH). The hybrid construct (plexA-BD-hNFAT1-BD) contains the coding region for 400-692 amino acid residues of hNFAT 1, which corresponds to the DNA binding region of the hNFAT 1 protein. The full length hNIP45H cNDA was cloned into prey vector pB42AD (CLONTECH). This hybrid construct (pB42AD-hNIP45H) contains the entire open reading frame of […].
Yeast strain EGY48/p8op-lacZ (CLONTECH) was transformed with the plexA-BD-hNFAT1-BD plasmid. […] Yeast strain EGY/p8op-lacZ/plexA-BD-hNFAT1-BD was subsequently transformed with pB42AD-hNIP45H prey construct. Transformants from SD/-UHW plates were subsequently tested on a 4-plate test (SD/-UHW, X-gal vs. GR/-UHW, X-gal, and SD/-UHWL vs. GR/-UHWL).

[3] = test system: mNFATp; assay: yeast two hybrid assay, interaction with mNFATp; format: binding, murine; details: colonies, FIG. 11 and FIG. 12
Method: An hNIP45 AD-fusion construct is co-transformed into the yeast host EGY48 (CLONTECH, cat # K1609-1) with the original murine LexA-NFATp bait and reporter, pSH18-34 (CLONTECH, cat# K1609-1). The functional conservation of hNIP45 is assessed by its ability of interacting with the NFATp protein to activate the reporter gene expression. Hodge, M., et al., NF-AT-Driven Interleukin-4 Transcription Potentiated by NIP45, Science, 274:1903 (1996). See, Example VI infra.

[4] = test system: HepG2 cells; details: overexpression in HepG2 cells; cited from earlier work

Chain of LacZ (P00722 whole entry): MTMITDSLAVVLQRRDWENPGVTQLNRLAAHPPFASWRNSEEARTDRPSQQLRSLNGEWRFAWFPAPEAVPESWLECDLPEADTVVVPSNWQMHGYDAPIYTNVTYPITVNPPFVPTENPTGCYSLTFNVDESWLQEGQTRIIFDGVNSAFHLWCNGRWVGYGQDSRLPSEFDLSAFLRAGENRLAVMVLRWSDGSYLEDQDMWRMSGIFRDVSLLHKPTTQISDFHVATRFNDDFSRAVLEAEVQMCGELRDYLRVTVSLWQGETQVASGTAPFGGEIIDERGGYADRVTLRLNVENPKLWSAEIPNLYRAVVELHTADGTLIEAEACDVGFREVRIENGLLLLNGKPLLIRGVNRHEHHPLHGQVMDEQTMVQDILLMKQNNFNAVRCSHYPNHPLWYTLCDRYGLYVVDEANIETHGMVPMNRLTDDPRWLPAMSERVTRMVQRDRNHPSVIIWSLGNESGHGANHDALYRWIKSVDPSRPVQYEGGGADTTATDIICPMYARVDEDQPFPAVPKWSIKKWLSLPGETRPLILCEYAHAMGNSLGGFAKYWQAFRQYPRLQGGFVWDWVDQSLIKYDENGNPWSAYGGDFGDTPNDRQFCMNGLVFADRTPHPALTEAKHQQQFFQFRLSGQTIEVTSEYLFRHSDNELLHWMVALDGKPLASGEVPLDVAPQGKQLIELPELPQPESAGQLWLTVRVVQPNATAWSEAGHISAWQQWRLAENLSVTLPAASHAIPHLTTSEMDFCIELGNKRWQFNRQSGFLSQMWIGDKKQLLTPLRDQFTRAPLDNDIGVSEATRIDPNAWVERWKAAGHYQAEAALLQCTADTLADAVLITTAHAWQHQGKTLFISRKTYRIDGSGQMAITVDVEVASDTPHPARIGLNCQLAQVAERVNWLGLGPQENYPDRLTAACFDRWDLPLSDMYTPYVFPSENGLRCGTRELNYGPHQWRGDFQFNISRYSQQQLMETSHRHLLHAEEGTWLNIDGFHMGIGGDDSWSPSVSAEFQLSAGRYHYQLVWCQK
Chain of mNFATp (Q60591 394-576 limits assumed): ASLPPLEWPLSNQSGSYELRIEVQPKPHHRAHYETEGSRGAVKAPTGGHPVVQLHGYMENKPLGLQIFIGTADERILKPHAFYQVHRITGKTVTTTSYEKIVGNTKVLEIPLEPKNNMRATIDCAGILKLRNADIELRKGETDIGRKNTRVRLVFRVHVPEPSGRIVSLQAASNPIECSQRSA

interaction with hNFAT1 [2] | Molecule | Km [1] [µM] | interaction with mNFATp [3] | increase of endogenous IL-4 production [4] [fold]
– | O=S1(=O)OC(c2ccc(O)c(Cl)c2)(c2ccc(O[C@@H]3O[C@H](CO)[C@H](O)[C@H](O)[C@H]3O)c(Cl)c2)c2ccccc21 (stereo partly drawn) [CPRG, Chlorophenol red-b-D-galacopyranoside] | ~500 | – | –
interacts well | hNIP45: novel human NIP45 polypeptide, 419 amino acid residues, SEQ ID NO:3, IL-4 transcriptional trans-activator (protein, listed as Homo sapiens) MAEPVGKRGRWSGGSGAGRGGRGGWGGRGRRPRAQRSPSRGTLDVVSVDLVTDSDEEILEVATARGAADEVEVEPPEPPGPVASRDNSNSDSEGEDRRPAGPPREPVRRRRRLVLDPGEAPLVPVYSGKVKSSLRLIPDDLSLLKLYPPGDEEEAELADSSGLYHEGSPSPGSPWKTKLRTKDKEEKKKTEFLDLDNSPLSPPSPRTKSRTHTRALKKLSEVNKRLQDLRSCLSPKPPQGQEQQGQEDEVVLVEGPTLPETPRLFPLKIRCRADLVRLPLRMSEPLQSVVDHMATHLGVSPSRILLLFGETELSPTATPRTLKLGVADIIDCVVLTSSPEATETSQQLQLRVQGKEKHQTLEVSLSRDSPLKTLMSHYEEAMGLSGRKLSFFFDGTKLSGRELPADLGMESGDLIEVWG | – | – | –
does not interact with hNFAT1 very well | mNIP45: murine NIP45, NF-ATp interacting protein, 412 amino acid residues, SEQ ID NO:4 (protein, listed as Mus musculus) MAEPLRGRGPRSRGGRGARRARGARGRCPRARQSPARLIPDTVLVDLVSDSDEEVLEVADPVEVPVARLPAPAKPEQDSDSDSEGAAEGPAGAPRTLVRRRRRRLLDPGEAPVVPVYSGKVQSSLNLIPDNSSLLKLCPSEPEDEADLTNSGSSPSEDDALPSGSPWRKKLRKKCEKEEKKMEEFPDQDISPLPQPSSRNKSRKHTEALQKLREVNKRLQDLRSCLSPKQHQSPALQSTDDEVVLVEGPVLPQSSRLFTLKIRCRADLVRLPVRMSEPLQNVVDHMANHLGVSPNRILLLFGESELSPTATPSTLKLGVADIIDCVVLASSSEATETSQELRLRVQGKEKHQMLEISLSPDSPLKVLMSHYEEAMGLSGHKLSFFFDGTKLSGKELPADLGLESGDLIEVWG | – | interacts well | 200
